Literature values in article PMC6472351.
“And” between values parts separate entries of the source, which are not always exact repeats. Identical values can stand only once. Like-named read-outs stand apart in the source and are kept apart here.

Tests used:
[1] = target: Histone H3 (Homo sapiens) (UniProt P68431)
[2] = target: Histone H3 (Homo sapiens) (UniProt P68431); remark: listed apart in the source

DIDO PHD (from UniProt Q9BTC0)
Kd [1]: 6 µM and 1 µM

GLP ankyrin (from UniProt Q9H9B1)
Kd [2]: 5 µM and 7 µM
